From paper PMC9197527, “An anti-ACVR1 antibody exacerbates heterotopic ossification by fibro-adipogenic progenitors in fibrodysplasia ossificans progressiva mice” (The Journal of Clinical Investigation, 2022)

What was measured:
[1] = target: T1, ACVR1 (as used for surface plasmon resonance) (Homo sapiens (assumed), UniProt Q04771); assay: SPR; BIAcore; which partner was immobilised, and the conditions, are not told in the text shown; settings: both partners purified
T1 construct: ACVR1 (ALK2), BMP type I receptor; For other steps (serum ELISA, panning, BLI) the methods name recombinant human ACVR1 extracellular domain proteins (Creative Biomart ACVR1-01H; Sino Biologicals 10227-H03B; R&D Systems 637-AR), but none is named for the BIAcore measurement; It was probably an extracellular domain construct; also called ALK2; BMP type I receptor ACVR1

[2] = target: T2, ACVR1 on parental C2C12 cells (Mus musculus (C2C12, endogenous), UniProt P37172); assay: flow cytometry on cells; JAB0505 on parental (wild-type ACVR1-expressing) and ACVR1-KO C2C12 cells; settings: one partner purified
T2 construct: ACVR1 (ALK2), mouse, endogenous on the surface of C2C12 cells; also called ALK2; wild-type ACVR1; source: endogenous, on mouse C2C12 myoblast cells

ALK3 on C2C12 cells = target: T3, ALK3 on C2C12 cells (Mus musculus (C2C12, endogenous), UniProt P36895); assay: as above; settings: one partner purified
T3 construct: ALK3 (BMPR1A), mouse, endogenous on the surface of C2C12 cells; also called Bmpr1a; source: endogenous, on mouse C2C12 myoblast cells (ACVR1-KO clone)
T3 sequence (P36895 24-532): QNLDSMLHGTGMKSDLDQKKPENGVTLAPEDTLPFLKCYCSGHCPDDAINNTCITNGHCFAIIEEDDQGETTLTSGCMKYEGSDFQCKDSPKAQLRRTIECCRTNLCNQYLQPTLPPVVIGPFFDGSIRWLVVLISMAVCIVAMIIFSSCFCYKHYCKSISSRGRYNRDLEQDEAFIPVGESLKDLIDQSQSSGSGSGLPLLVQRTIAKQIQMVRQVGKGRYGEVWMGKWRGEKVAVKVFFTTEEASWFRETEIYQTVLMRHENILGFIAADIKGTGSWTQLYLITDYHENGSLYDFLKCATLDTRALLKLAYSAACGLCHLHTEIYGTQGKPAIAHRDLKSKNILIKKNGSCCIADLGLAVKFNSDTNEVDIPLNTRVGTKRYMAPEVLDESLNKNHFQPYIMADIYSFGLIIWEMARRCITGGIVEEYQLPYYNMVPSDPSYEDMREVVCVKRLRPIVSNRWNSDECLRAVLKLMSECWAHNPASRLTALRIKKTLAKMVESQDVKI

T2 sequence (P37172 21-509): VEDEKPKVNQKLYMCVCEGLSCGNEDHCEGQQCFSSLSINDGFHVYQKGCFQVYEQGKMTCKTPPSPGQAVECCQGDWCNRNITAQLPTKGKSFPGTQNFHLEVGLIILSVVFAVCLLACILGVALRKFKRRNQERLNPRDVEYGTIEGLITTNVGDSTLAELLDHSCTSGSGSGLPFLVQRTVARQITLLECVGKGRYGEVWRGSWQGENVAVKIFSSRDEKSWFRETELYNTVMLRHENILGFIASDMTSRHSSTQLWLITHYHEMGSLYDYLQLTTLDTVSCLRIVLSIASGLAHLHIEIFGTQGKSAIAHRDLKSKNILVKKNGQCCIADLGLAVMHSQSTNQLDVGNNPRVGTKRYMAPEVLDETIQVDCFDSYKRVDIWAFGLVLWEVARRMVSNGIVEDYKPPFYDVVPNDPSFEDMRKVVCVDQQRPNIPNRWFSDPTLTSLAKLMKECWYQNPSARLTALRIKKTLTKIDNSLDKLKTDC
T1 sequence (Q04771 21-509): as the sequence (P37172 21-509) above, with V1M, Q10P, I121L, E162D, S310P counted along it

B1: anti-ACVR1 monoclonal antibody JAB0505 (antibody, V domains shown)
VH: EVQLQQSGAELVRPGASVRLSCTASGFNIKDSLMHWVKQRPEQGLEWIGWIDPEDGETRYAPNFQDKATITAVTSSNTAYLQLSSLTSEDSAIYYCARYTSRYYTMDYWGQGTSVTVSS
VL: DIQMTQSPASQSASLGESVTFTCLASQTIGTWLAWYQQKPGKSPQLLIYAATSLADGVPSRFSGSGSGTKFSFKISSLQAEDFASYYCQQLYWTPWTFGGGTKLEIK
notes: also called anti-ACVR1 mAb; mAb JAB0505; source: HEK293 cells, purified by protein A chromatography; copies: 2 + 2
Kd [1]: ~0.025 µM | binding result [2]: binds | binding result (ALK3 on C2C12 cells): no binding
